From a protein production outcome set (Wang et al. 2014)

Assay: label from the status in PepcDB records

Sequence	protein production
MSSCGCAYDILKYQLVIKGNRFNEESEQSMTETTENTVNLPYRNPKLPTEERIADLLGRMTLEEKVGQMMQLDARSGDLDDLIVNKHVGSILHTSPSDLPKAVETVNAKTRLGIPLVIGDDCIHGYSFWPGATIFPEQLGMATTWDSEKVQAAGRATAEEVSATGVHWTFSPVLCIARDTRWGRVGETFGEDPYLIGEMASSIVKGYQGGAKAGEPLAKDAILACAKHFAGYSETQGGRDASEADLSHRKLESWFLPPFERVAKEGCGTFMLGYESIEGVPVTFNKWLLSDKLRGAWNYQGTLITDWDNVGRSVWEQKVKPDYVQAAADAVKSGNDLVMTTPKFYEGAIEAVKTGLLDESLIDAAVARILALKFRLGLFEDPRLPDQKRIDAVIGSEEHQQLNLEVAREAVALLKNDGSLPFNVAGAKRIAVVGPLADDVQTQLGDWAGSSGQINWMPDGHPREMITTVLDGFKQLAPEGCEVVYSRGANIVDLVPDPEGEFYPDGQPRPKIGVSAKIDRALLGEAVENARKSDLIVAVVGDVIQAIGEGCSTATLELLGGQNALIDALSNVARETGKPFVVVLVSSKPQVLPASVIGTNGVIVDETPAEGTSALLWAPSPGMKGGQAIAEIILGETEPSGRLPITFPRHAGQLPVYYNQIRGQHGNRYADLTQNPAFAFGEGLSYTTFEYGDPTITNVPESGIFAETDTVHAEITLTNTGDRKGTEVVQLYIGDIVTSYSWTDRELKAFQRVELEPGKSKTVAFDIPVSDCTIVDSEANRIVEPGEFEVLIGHSSRREHLKRTTFTVA	failed
MSSDAVSKYTPGIYRTSIRLNNNTFDVEVTVDQDQIQSIHLANLSESTSAMFPLVEPVLDSLSSQIYSGQSLDDLEYSSDQKYTALMLIHAIDEAVTKAEADLEHHHHHH	not failed
MSSFFSVLLVLGGLIFFHELGHYLAARVLGIGVHTFSLGFGPRIFGWRSGQTDYRLSLIPLGGYVSLAGESDDEIPEGFTKGQMFSARPAWHRLIVIAAGPVFNLLLAWFIYWGLTFVHGQFIVLPEVGKVLEGGPAAAAGVQSGDRIVAIDGVSIERWDQVSDAIAASKGAPVTLSLTRNEGQHELRIVPEHRTRKTIFGDEEDAFLIGIQASGATMTLPQTPVEAAVTGARQTWTMIAMTGKGVVKLFERVVPLDTVGGPIMIAQMVSREAKDSGITGVLALAALISINLGLLNLLPIPVLDGGHIIFLGLEMLFRRPVPQKVQEVTTRMGLVLLLGLMFLATYNDIVRIGQ	failed
MSSKNTAEVILGGKVIKLGGYESEEYLQRVASYINNKITEFNKEESYRRMSAELRTDMMYLNIADDYFKAKKMADSLSLDIENKDKEIYDLKHELIAAQIKAESSAKEIKELKSEINKYQKNIVKLETELNDSKK	not failed
MSSLLYARVRANARFQQLVARRNRFTLSLFVLILATFYGYIGLVSFWPELIARRLAQGSNMTVGVAAGAFLFVFFCALSAFYVYRANGEFDSLTQALLSGLEEEQGA	failed
MSSLTARWHRSIQEIPEQHWQALVSDHAIPFYRWSWLEALESSGSIIPEQGWQPLHLALWRGDVPIAVAPLYLKGHSYGEFVFDQTFARLAGDLGLRYYPKLLGMSPVSPVLGYRFHVLPGEDEAELTAVLLRAIDAFCEHNSILSCNFLYVDPQWRPLAEAAGCATWLNQQSLWSRGDDQSFDDYLNGFNANQRRNIKRERKAVAKAGLTVTPLTGEQLDLELFQIMHGFYEQHCARWGPWGSKYLEQGFFEALAGLHREQVVLFSAHRGDPREPVAMSMCVRDDHHLWGRYWGSEEEIDCLHFEVCYYAPIEWAISQGIDSFDPGAGGSHKRRRGFVARPHASLHRWYQPQMDGLIRAWLPKVNGLMLEEIEAINAELPFKADAPSLSL	failed
MSSMYTTFAEQYDNVVQDNIYNAYLERPSLQAMLGDVNGCDVIDLGCGSGVYADYFIHRGVAKLTCIDYSPNMIEIVKRKFGDRVTAYAQDASIGLIKEASESADLIISPLMIHYLEDLSVLFNDVARVLKNGGNFAFSTHHPFADFECTLSGNYFEREFITEMWNTVGEPVEVTFYRRSLTEIMNAITDSGLVVTQLSEGKVAEEVKQISLEKYEYLSKNPNFIFIKCQKLV	failed
MSSNAQVRPPLPPFTRESAIEKIRLAEDGWNSRDPERVSLAYTLDTQWRNRAEFAHNREEAKAFLTRKWAKELDYRLIKELWAFTDNRIAVRYAYEWHDDSGNWFRSYGNENWEFDEQGLMARRFACINDMPIKAQERKFHWPLGRRPDDHPGLSELGLLEHHHHHH	not failed
MSSNMQQTINVWDPLIRIFHWSLVGFFTLAYLTEGEDEWMNIHSYAGYSILTLLVFRLLWGVIGTHHARFNHFITRPSIAWTYLKQLFSGNAKDYIGHNPAGALMIIALITSIAVAGFSGMALYATDSQGPLATSFFATWPEGALKEVHEFFANFSLFLIATHIGGVIVSSLLHKENLIRAMVTGKKQRPLIQQDERQ	failed
MSSPAILLFDIDGVIRDVAGSYRRALQVTVEHYSGWQPMAADIDALKAEGCWNNDWDASLELLRRHENDVPSRSELIEVFSGFYFGGDPEGDPAEWQGFIGDEPLLVTRAFFDELTRHDIRWGFVSGAEPPSARYVLQQRLDLKDPPLIAMGDAPDKPDPTGLIRLAEQMAAGEVPHWIAYIGDTVADVQTVLNARKRRPELPWRSLAVAPPHVTDVSTYHRQLQDAGADRIVGATRELLPMLLDELA	failed
MSSPARSPSVGGATPKQGARTPTRGIASQDVETPMRMGPGRAVRPSDNISLPPTSPGNISLPATSPARGLGANMSEIDLSSPLNYGTPSSMGSIRTPRSGIRGTPLRARPDIRTDKRIRQVAIGGGSGLEPIPEKGSETTDPVSESSQAPQLVVWGTNVVVSQCKSKFKSFIMRFIDPSAEQDEISENIDVNQPLYLQKLEEIHTLEEPYLNLNCAHLKTFDQDLYRQLICYPQEVIPGFDMAINEMFFERYPAALLEHQIQVRPFNADKTRNMRSLNPEDMDQLISISGMVIRSSNVIPEMREAFFSCNICSFSTTVEVDRGRINQPTLCTNCNTNHCFRLIHNRSEFTDKQLVKLQESPDDMAAGQTPHNVLLYAHNDLVDKVQPGDRVTVTGIYRATPLKTGGLSSSVKSVYKTHVDVVHFRKVDNKRLYEDEEGKDHIFPPERVELLQLLAKKPDIYDRLARAIAPSIYENDDIKKGILLQLFGGTKKKHATLGRQNFRSEIHLLLCGDPGTSKSQMLQYVFNLVPRSQYTSGRGSSAVGLTAYVTKDPETRQLVLQTGALVLADNGVCCIDEFDKMNDSTRSVLHEVMEQQTLSIAKAGIICQLNARTSILAAANPAESQWNKRKNIIDNVQLPHTLLSRFDLIFLVLDPQDEIFDKRLASHLVSLYYVTRHEEEDTMFDMSVLRDYIAYAREHLSPTLSDEAQQRLIQAYVDMRKVGAGRGQISAYPRQLESLIRLSEAHAKVRLSNQVELLDVEEAWRLHREALKQSATDPLSGKIDVGILTTGLSTAARKKRADLVAAIKENLKKKGKVLTVPYQKLFSDIKEGSQIMITREQFEDALKEVQDEGAIVVMGKNTIRIC	failed
MSSPKISIIIPVYMAESYLHRCVDSIITQTFTDWELLLVDDGSPDHSGELCEKYASAYKSRIKAFHKPNGGVASAREFGMQQARGEYSIHVDPDDWIDSNTLEELYQQAVKEQADMVICDFMMEYPNRQIHNCQKPQLLDSSSFMHQLLQQERHGSLCNKLIRTELYHKYQLHFPEKMICWEDLYICCSILLHGCKLAYVPHALYHYDFYTNDNSMVRHTDMRGLQAQIDFCRLMQAKISPEYLPELNELKGITLITAFRNQLLNEQAIRSLFPEINDWYVTRYGHDYEKSNYYGLTLVLRGYNFKTARRRMFVAKFLVQIKNKITRMLLEHHHHHH	not failed
MSSPSEFPLSEAPQSARKGLLPIAMVLFSFTFFTGTMFAGGKLGMAFSFVDMLWVATLGNSLLALYAAALAFIASRSGLNTVLMGRFCFGEAGSRLSDFLLGFAELGWYAWGTATVAIVLVKLLGLADGFGMPLMVLFGLGFSITAIIGFKGLDLLSRVSVPLMFVLLLVSMYIATRDAGGFAGLAAVVPHETMTFSAAVTMVFGTFASGATQATNWTRLARSGRVAVIASGVAFLLGNGLMVVAGAWCAMVYQQADIVDVMMLQGLSFAAVVMLCLNLWTIQGPTIYNVSAAACHLLRSERRRTATLVAAGVGIVLAMGGMYEMLIPFLVLLGSIIPPVGGVIMADFWYRHRGKYPPLCTANLPRYNLTGLFAYAVGAVLAYASPWVAPLVGIAASAVCYIVILELGARRRAPGQAGVEP	failed
MSSPSRTVTLPDIMCPKCIKCGSERTHHSRVRPSERTLSMLFLRPIRCRQCKERFWVKNSNAFLALGGVLFIGALLITTVWLIIEHNMADPYAGSAPEIGTEDPADSVARGTSKSQNGQEALSAPAPGTRGTHDVTQSPGSIPSSAPARNPLEDHRFTVRLYQEAANNGDADSQYKLGLLYLTGNGALQDFAEAAKWLQLAAEQGYGPAQYELGLIYRNGYGLPTDHVQSYVWLNLAAAAGVQQAMGARDEVMRALSSKQLAQAQKISREWLAARTGPESGKEADRVESAHPRRK	failed
MSSRNTLGNDEPMNQEKEGVESKDTPRTETKGVEKKHSVLVKQDWLPSDYAQYVDEKILNIGFEPDTFQRQAFYLLSRASSVFVSAHTSSGKTLVAEYAISLSQIHGTRTIYTSPIKALSNQKYHDFKQKYDDVGIITGDVQVNPAAKCLVMTTEILRNLVYRNGDLLRDTEFVVFDEVHYINDSERGVVWEECIIMIPRHINFIMLSATIPNSLEFSEWVGRTKDKTIYVISTSKRAVPLEHVIYCDWCVYSIDDGGGKRNASNFKGDLVPFSKKTRPTGKFKILDVANFVVKKKLTPAIFFCFSKRKCEDYAEILRTLNLNDTKSREEVKLFLSEATRCLSPEDRNLPQVLSMSSMVLNGVAVHHGSLLPFVKECVELLFSMNLVKLLIATETFAMGVNMPAKCCVFLSLSKIDGGVFRYISSGEYIQMSGRAGRRGMDAVGTVMIADPKMPSLSTIQGIIHGTPFSLSSQFRLSFGLILISLRSNIRVEDLMRRSYGEHRSQRNYERDMKKLSELESVEEDVCNVCGDLSKYIGAVEEICARNWKLIAKHHVLKEGSRVLLKNNAVGTVERVSGATVFLKQKDEALDNGTPIPTKFLAYPLGTRKPLDRSKVTFENIFCVLDGEKALWNYETANVMDVLEIRKIKSLYDYLLSEQQVCREFDQHYSNALRVHCKRKEMNDIKIRYNVCSLGMIDEYNRRMEFLKKKGFVEEMITIKGRAAAEIHTVNEVLVVEMIFSNEFRQMDGRKIVSLMSSMIHEEADGQELGKALYDECKRMDECFRELSRDLDELMIPPFTPLNFSLVDAVYDWCNGSSLGKIVSRYNVLEGTFVRLVLRLEECCRELISVSTMIGDKSLEEKIGDASASMKRDIIFLPSLYL	failed
MSSRSHARPEAVTRIASLAECGETVACMACARYPSCLAHLRLRMKRHFSMLRDFQLADWFTLANAFCGTGAVFAAMRFLQEEHRGDLLLGMALIPLAFVFDALDGHVARWRKASSTLGRELDSLADVISFGVAPAALGYACGMRGGWDWLVLSYFVCCGVSRLARYNVTAEEIAGEADKVPYFEGTPIPTSLLLVILLAVAASIGHIGETLWWGQWQLGPWQFHPLVLLFAVSGSLMISKTLRIPKL	failed
MSSSHLAERHAFSDLSLLSEALAQSVTVTLRNAIERYGKASLVVPGGHTPVVYLPRLAQMDLPWQQVFITLSDERWVEPTSEQSNERLVREHFLQHMQQQPHFIALKTGHIHPDQAITDIDARLAELPQPFSLVILGLGEDGHIASLFPGMALNPDTTSLCQTATPPAAPSLRISLSLHALINSDRIILVITGKEKRQLIDRLIESPDQNIPFVRLMQFKPVELFETD	not failed
MSSSLMTSSGFRFLFPIALLGMVSVGMGNIIQMTQSNWGIAANLPYILLGCALVLCYSFKQGRESMVCLSMLVAYFVIQHRLQVPLNSGTALLELTILATLLPVSFLTVFLFNKDGFDSKAMFIYVLMLVMFILWSYIILAYYVDGGFEQWTSGILFIVPSVSKLPFILVLYCVGIVCFLGILLLKTNKIIHAMTYSAMALASATFIFFDVQYISSTMFTLTGLLIIIYSTSASHQLAFTDSLTQIPSRRALDLDLKHMGRKFTIAMLDVDHFKKFNDTYGHDIGDDVLKMVASRLMKTRGGAKVYRFGGEEFTMVFKGKNVEDCRQYIEEARKAIAEYEMILRDKASRPDDHKQGQQNRGTEDMQRESVFVTASFGAADSRNGREPAEVIKLADAALYKAKKAGRNCTRVNQN	failed
